# Experimental data taken from patent publication US11667688B2, “Glucagon derivative and a composition comprising a long acting conjugate of the same” (HANMI PHARM. CO., LTD., priority 2015, dated 2023).
# Bridge positions count the residues as written; N and C are the ends. Square brackets hold non-standard residues; d marks the D form. Ends that are not written are not given here. Aib = CC(C)(N)C(=O)O
# Biological target: T1, human glucagon receptors (Homo sapiens, UniProt P47871)
# T1 construct: a region corresponding to Open Reading Frame (ORF) in the cDNA; expressed in transfected cells
# T1 sequence (P47871 26-477): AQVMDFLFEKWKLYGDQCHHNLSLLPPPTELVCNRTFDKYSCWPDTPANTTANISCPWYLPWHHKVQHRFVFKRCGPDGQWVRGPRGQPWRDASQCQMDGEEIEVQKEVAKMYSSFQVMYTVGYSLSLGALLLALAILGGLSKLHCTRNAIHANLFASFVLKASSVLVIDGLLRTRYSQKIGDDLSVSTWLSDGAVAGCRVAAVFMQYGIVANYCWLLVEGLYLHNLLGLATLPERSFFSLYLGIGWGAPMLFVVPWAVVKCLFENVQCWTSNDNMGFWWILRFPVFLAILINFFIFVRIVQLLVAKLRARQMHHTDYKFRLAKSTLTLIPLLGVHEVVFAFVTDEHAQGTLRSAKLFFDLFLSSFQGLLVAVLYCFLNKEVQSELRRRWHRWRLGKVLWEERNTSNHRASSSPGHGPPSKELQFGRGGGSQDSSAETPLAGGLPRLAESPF
# Assay: cAMP activity of glucagon derivatives in CHO cell line transfected with human glucagon receptor (LANCE cAMP kit)
# Format: cell-based
# Settings: cAMP EC50 compared with that of native glucagon; CHO cells with human glucagon receptor
# Procedure: PCR was performed using a region corresponding to Open Reading Frame (ORF) in the cDNA (OriGene Technologies, Inc., USA) of human glucagon receptor gene as a template along with the following forward and reverse primers (SEQ ID NOS: 47 and 48, respectively), which include each of the EcoRI and XhoI restriction sites.
# The PCR product was cloned into a known animal cell expression vector, x0GC/dhfr, to prepare a recombinant vector x0GC/GCGR.
# CHO DG44 cell line cultured in DMEM/F12 (10% FBS) medium was transfected with the recombinant vector x0GC/GCGR using LIPOFECTAMINE®, and cultured in a selection medium containing G418 (1 mg/mL) and methotraxate (10 nM).
# Specifically, the transfected cell line was subcultured 3 to 4 times a week, aliquoted into a 384-well plate in an amount of 6×10^3 cell lines/well, and cultured for 24 hours. Native glucagon and glucagon derivatives were suspended in Hank's balanced salt solution (HBSS) buffer containing 0.5 mM of 3-isobutyl-1-methylxanthine (IBMX), 0.1% bovine serum albumin (BSA), and 5 mM 4-(2-hydroxyethyl)-1-piperazineethanesulfonic acid (HEPES) with the culture cells, at concentrations of 200 nM and 1600 nM, respectively, continuously subjected into a 4-fold dilution 10 times, applied to a cAMP assay kit (LANCE cAMP 384 kit, PerkinElmer), and added to the cultured cells, and their fluorescence value was measured.
row,Substance,"In vitro Activity (Relative Activity of SEQ ID NO: 1, %)"
1,"WXQGTFTSDYSKCLDERRAKDFVQWLMNT (W[Aib]QGTFTSDYSKCLDERRAKDFVQWLMNT; bridge 16-20) [SEQ ID NO: 30, glucagon derivative, X = Aib]",0.3%
2,"WXQGTFTSDYSKYCDERRAKEFVQWLMNT (W[Aib]QGTFTSDYSKYCDERRAKEFVQWLMNT; bridge 16-20) [SEQ ID NO: 34, glucagon derivative, X = Aib]",0.2%
3,"WXQGTFTSDYSKYLDECRAKDFVQWLMNT (W[Aib]QGTFTSDYSKYLDECRAKDFVQWLMNT; bridge 16-20) [SEQ ID NO: 26, glucagon derivative, X = Aib]",1.0%
4,"YXQGTFCSDYSKYLDERRAKDFVQWLMNT (Y[Aib]QGTFCSDYSKYLDERRAKDFVQWLMNT; bridge 16-20) [SEQ ID NO: 41, glucagon derivative, X = Aib]",45.2%
5,"YXQGTFCSDYSKYLDERRAKEFVQWLMNT (Y[Aib]QGTFCSDYSKYLDERRAKEFVQWLMNT; bridge 16-20) [SEQ ID NO: 38, glucagon derivative, X = Aib]",167.3%
6,"YXQGTFCSDYSKYLDSRRAQDFVQWLMNT (Y[Aib]QGTFCSDYSKYLDSRRAQDFVQWLMNT) [SEQ ID NO: 42, glucagon derivative, X = Aib]",37.9%
7,"YXQGTFTSDCSKYLDERRAKEFVQWLMNT (Y[Aib]QGTFTSDCSKYLDERRAKEFVQWLMNT; bridge 16-20) [SEQ ID NO: 36, glucagon derivative, X = Aib]",9.9%
8,"YXQGTFTSDCSKYLDSRRAQDFVQWLMNT (Y[Aib]QGTFTSDCSKYLDSRRAQDFVQWLMNT) [SEQ ID NO: 43, glucagon derivative, X = Aib]",1.6%
9,"YXQGTFTSDYSCYLDSRRAQDFVQWLMNT (Y[Aib]QGTFTSDYSCYLDSRRAQDFVQWLMNT) [SEQ ID NO: 13, glucagon derivative, X = Aib]",5.2%
10,"YXQGTFTSDYSKCLDEKRAKEFVQWLMNT (Y[Aib]QGTFTSDYSKCLDEKRAKEFVQWLMNT; bridge 16-20) [SEQ ID NO: 24, glucagon derivative, X = Aib]",58.0%
11,"YXQGTFTSDYSKCLDERRAKDFVQWLMNT (Y[Aib]QGTFTSDYSKCLDERRAKDFVQWLMNT; bridge 16-20) [SEQ ID NO: 29, glucagon derivative, X = Aib]",61.3%
12,"YXQGTFTSDYSKYCDEKRAKEFVQWLMNT (Y[Aib]QGTFTSDYSKYCDEKRAKEFVQWLMNT; bridge 16-20) [SEQ ID NO: 23, glucagon derivative, X = Aib]",76.8%
13,"YXQGTFTSDYSKYCDERRAKEFVQWLMNT (Y[Aib]QGTFTSDYSKYCDERRAKEFVQWLMNT; bridge 16-20) [SEQ ID NO: 35, glucagon derivative, X = Aib]",17.7%
14,"YXQGTFTSDYSKYLCEKRAKEFVQWLMNT (Y[Aib]QGTFTSDYSKYLCEKRAKEFVQWLMNT; bridge 16-20) [SEQ ID NO: 19, glucagon derivative, X = Aib]",12.1%
15,"YXQGTFTSDYSKYLCEKRAQDFVVWLMNT (Y[Aib]QGTFTSDYSKYLCEKRAQDFVVWLMNT) [SEQ ID NO: 15, glucagon derivative, X = Aib]",1.1%
16,"YXQGTFTSDYSKYLDCKRAKEFVQWLMNT (Y[Aib]QGTFTSDYSKYLDCKRAKEFVQWLMNT; bridge 17-21) [SEQ ID NO: 31, glucagon derivative, X = Aib]",6.3%
17,"YXQGTFTSDYSKYLDCRRAQVFVQWLMRT (Y[Aib]QGTFTSDYSKYLDCRRAQVFVQWLMRT) [SEQ ID NO: 16, glucagon derivative, X = Aib]",4.2%
18,"YXQGTFTSDYSKYLDCVRAQDFVQWLMRT (Y[Aib]QGTFTSDYSKYLDCVRAQDFVQWLMRT) [SEQ ID NO: 17, glucagon derivative, X = Aib]",23.2%
19,"YXQGTFTSDYSKYLDECRAKEFVQWLMNT (Y[Aib]QGTFTSDYSKYLDECRAKEFVQWLMNT; bridge 16-20) [SEQ ID NO: 20, glucagon derivative, X = Aib]",299.7%
20,"YXQGTFTSDYSKYLDEKRAKCFVQWLMNT (Y[Aib]QGTFTSDYSKYLDEKRAKCFVQWLMNT; bridge 16-20) [SEQ ID NO: 25, glucagon derivative, X = Aib]",46.9%
21,"YXQGTFTSDYSKYLDEKRAKEFVQWLMNTC (Y[Aib]QGTFTSDYSKYLDEKRAKEFVQWLMNTC; bridge 16-20) [SEQ ID NO: 12, glucagon derivative, X = Aib]",56.3%

# Results, then the substance that gave them:
row,"In vitro Activity (Relative Activity of SEQ ID NO: 1, %)",Substance
1,0.7%,"-SQGTFTSDYSKYLDECRAKEFVQWLMNT (bridge 15-19; also: name begins with '-': N-terminal residue before chain not given here) [SEQ ID NO: 32, glucagon derivative, no residue at position 1]"
2,0.6%,HSQGTFTSDYSKYLDCDRAQDFVQWLMNT (glucagon derivative) [SEQ ID NO: 2]
3,6.1%,HSQGTFTSDYSKYLDCERAQDFVQWLMNT (glucagon derivative) [SEQ ID NO: 3]
4,<0.1%,HSQGTFTSDYSKYLDSCDAQDFVQWLMNT (glucagon derivative) [SEQ ID NO: 4]
5,<0.1%,HSQGTFTSDYSKYLDSCEADDFVQWLMNT (glucagon derivative) [SEQ ID NO: 6]
6,0.3%,HSQGTFTSDYSKYLDSCEAQDFVQWLMNT (glucagon derivative) [SEQ ID NO: 5]
7,<0.1%,"WXQGTFVSDYSKYLDECRAKDFVQWLMNT (W[Aib]QGTFVSDYSKYLDECRAKDFVQWLMNT; bridge 16-20) [SEQ ID NO: 28, glucagon derivative, X = Aib]"
8,<0.1%,YSQGTFTSDYSKYLDSCEADDFVQWLMNT (glucagon derivative) [SEQ ID NO: 7]
9,18.1%,"YXQGTFTSDYSKYLDCKRAKEFVQWLMNT [SEQ ID NO: 14] (Y[Aib]QGTFTSDYSKYLDCKRAKEFVQWLMNT; not fully specified) [glucagon derivative, X = Aib]"
10,4.6%,"YXQGTFTSDYSKYLDEKCAKEFVQWLMNT [SEQ ID NO: 11] (Y[Aib]QGTFTSDYSKYLDEKCAKEFVQWLMNT; not fully specified) [glucagon derivative, X = Aib]"
11,57.8%,"YXQGTFTSDYSKYLDEKCAKEFVQWLMNT [SEQ ID NO: 21] (Y[Aib]QGTFTSDYSKYLDEKCAKEFVQWLMNT; bridge 16-20) [glucagon derivative, X = Aib]"
12,147.8%,"YXQGTFTSDYSKYLDEKRCKEFVQWLMNT (Y[Aib]QGTFTSDYSKYLDEKRCKEFVQWLMNT; bridge 16-20) [SEQ ID NO: 22, glucagon derivative, X = Aib]"
